1 molecule from PMC1635299 can be followed below.

The target in one data set is Dlx2 (UniProt P40764 1-332). The data set can be described thus: EMSA.
Another data set addresses Msx2 (UniProt Q03358 1-267). Briefly: EMSA. On the technique in general: In EMSA bound probe runs differently from free probe, usually more slowly.

Dlx2, sequence (P40764 whole entry): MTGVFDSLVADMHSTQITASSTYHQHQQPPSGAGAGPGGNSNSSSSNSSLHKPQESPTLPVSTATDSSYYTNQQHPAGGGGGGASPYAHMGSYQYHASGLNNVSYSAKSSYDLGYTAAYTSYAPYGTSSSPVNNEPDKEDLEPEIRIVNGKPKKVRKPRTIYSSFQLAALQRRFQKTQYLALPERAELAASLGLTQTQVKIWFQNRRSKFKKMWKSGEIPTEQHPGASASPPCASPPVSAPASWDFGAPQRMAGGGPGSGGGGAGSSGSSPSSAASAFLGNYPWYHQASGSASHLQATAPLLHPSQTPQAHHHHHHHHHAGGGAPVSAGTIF
Msx2, sequence (Q03358 whole entry): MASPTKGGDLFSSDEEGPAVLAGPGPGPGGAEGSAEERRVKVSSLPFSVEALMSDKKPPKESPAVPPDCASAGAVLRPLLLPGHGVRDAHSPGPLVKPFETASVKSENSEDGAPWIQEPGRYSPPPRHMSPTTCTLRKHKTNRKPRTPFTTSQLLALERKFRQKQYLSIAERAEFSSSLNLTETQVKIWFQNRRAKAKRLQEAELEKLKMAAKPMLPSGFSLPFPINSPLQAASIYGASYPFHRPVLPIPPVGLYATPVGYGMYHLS

B1: Msx2 promoter Dlx2 site probe (dsDNA)
DNA 1: GATCCGGGTAGAGATTAGTTGAATATCCCTTGGGGATC
DNA 2: GATCCCCAAGGGATATTCAACTAATCTCTACCCGGATC
As for B1, the binding result in the data set with Dlx2 and with Msx2 was “binds” each time.
